In test [1] the target is GPIbα (Homo sapiens) (UniProt P07359). As to conditions: cited from earlier work.
In test [2] the target is T1, VWF A1 domain construct A1 short (residues 1264-1469) (human, UniProt P04275 1264-1469).
T1 construct: von Willebrand factor, human, A1 domain without the N- and C-linkers, residues 1264-1469, pre-pro-VWF numbering; Both the mammalian and the bacterial methods allow a 1264-1469 construct; If it was made in E. coli, it carried an N-terminal thioredoxin that was cut off with TEV protease; Long-range disulfide Cys1272-Cys1458 is present; source: purified (Ni-NTA, Superdex 200), gel filtered again on …
In words: BLI; biotinylated GPIbα on streptavidin sensors, A1 constructs as analyte; 20 mM HEPES pH 7.5, 0.02% Tween-20, 150 mM NaCl; global fit to a single kon and koff; Octet RED384. As to conditions: both partners purified. (In general: BLI is a label-free optical method that tracks binding on a fibre tip over time.)

The target of test [3] is T2, VWF A1 domain construct A1+OGly+N+C (residues 1238-1489, O-glycosylated) (human, UniProt P04275 1238-1489, O-glycosylated N- and C-linkers).
T2 construct: von Willebrand factor, human, A1 domain with the N- and C-linkers, residues 1238-1489, pre-pro-VWF numbering; It extends three residues beyond the bacterial A1+N+C so as to include the O-glycosylated residues Ser-1486 and Thr-1487; also called A1NC
The description is as above. The conditions noted are these: both partners purified.

Test [4] deals with T1, VWF A1 domain construct A1 short …. In words: ITC; GPIbα (250 uM; 550 uM with A1+OGly+N+C) titrated into A1 (22 uM; 50 uM with A1+OGly+N+C); 150 mM NaCl, 20 mM Tris-HCl pH 7.5, 22°C; MicroCal iTC200. The conditions noted are these: both partners purified. (In general: ITC needs no label: the signal is the heat of the interaction.)

The values below come from PMC9084892, “Von Willebrand factor A1 domain stability and affinity for GPIbα are differentially regulated by its O-glycosylated N- and C-linker” (eLife, 2022).

As usually defined, the Kd is the free concentration of one partner at which half of the binding sites on the other are occupied at equilibrium, for simple one-to-one binding.

“von Willebrand factor A1 (tethered, high-affinity state) (from UniProt P04275)”: the dissociation constant Kd in test [1] was 80 nM.

B1: Wild-type GPIbα, residues 1-290 of the mature protein, with biotinylated Avi-tag and His6 tag (domain or fragment)
chain: HPICEVSKVASHLEVNCDKRNLTALPPDLPKDTTILHLSENLLYTFSLATLMPYTRLTQLNLDRCELTKLQVDGTLPVLGTLDLSHNQLQSLPLLGQTLPALTVLDVSFNRLTSLPLGALRGLGELQELYLKGNELKTLPPGLLTPTPKLEKLSLANNNLTELPAGLLNGLENLDTLLLQENSLYTIPKGFFGSHLLPFAFLHGNPWLCNCEILYFRRWLQDNAENVYVWKQGVDVKAMTSNVASVQCDNSDKFPVYKYPGKGCPTLGDEGDTDLYDYYPEEDTEGDKVR
modifications: biotin on the Avi-tag
In the case of B1, the Kd in test [2] stood at 180 nM; in test [3], 9200 nM.

B2: Wild-type GPIbα, residues 1-290 of the mature protein, with His6 tag (no Avi-tag) (domain or fragment)
chain: B1 chain
modifications: Mature 1-290 = precursor 17-306 (signal peptide 1-16). The His6 tag is left out; no Avi-tag or biotin. Expressed in HEK293, so glycosylated and disulfide-bonded.
Regarding B2, in test [4], the “fold higher affinity of A1 short than of A1+OGly+N+C” value is 39 fold.
